Assay results reported in PMC7110144 (2020).

B1: CAL1-HA (in S2 cells) [Drosophila melanogaster] / GFP-LacI-CENP-C (in S2 cells) [Drosophila melanogaster] (parent complex)
chain 1: MANAVVDEETLEAMVYERSKAWSSKMADFASLEDGMEIDVAEFDNLFHGEDEDPDLDDVAKEAVEDNVPDEAKLEMGHINATSVTELTLILCANEDNEAKAEIEEILNQTVPVVEEHKRKWREAGLDRILDTFDEKQIEHHVGRWMRRHNSVYLEASPPKYLPPHHNSISDESDESMHSIDTARYIQQSRRRNAHMTNKNMTTIKMYRKHSHKRDELRAKYAYGDEQEHRHHMQAVLLRRRERERQLAYLASTPMQCVYSSGHHMRRKNLRKRRINSWMFDSASSSEEDTSFGGCDCHSCRRHYALSRSVYQSCPYGRGQREYHHRQMASRTMHTMRRQHTFDMEMDLRPRLPENECSCCNSDRLCSNVIHIANSSTEEWVVENRSNHLTQETQEKTRKQKHQPMDARKVSHQPVCSKGHEQKPLSSKATSVSKLVLSKEKYMQMFDSESSDEDNALAKKGLLCCSDKKKGMTFPTPNAAGKITHPTSSAKKAIRKEARPNGLAQIQEEGPTATNSPIESTYLPVAHMKSVSIDGSSGTSATFESPAKKAPKRGIRETSPLNGNELQQLISTIPIADEKASSLMEKVDNCIGRESFDDRNKDFMHMENSSTKTAVEKSTKQKRVSGKKSEIPKSIITNNEILEKNSTETLSEKQVAAKAKKQSVRKTGATGKPSTSRLKKSEKTKTTSSVTSTSKLEQVREEESDVSSEVLAKPKPQCSTTASILKQGGDGASNSEDDLQIALAMSKATYKEEQQKRKKTKREPSNKQPQSPAEKSMTVFNNQSVACNSTALANDTACYRVLPKRRGVKRAAAVSTTEEKTATNSSSSPTSSLEEMGSPTGGDPDCTVVTSTTGCEPPASERQEIPATIKITKRGILLHSPSAPEGASFTLTEQGLGKIIGERWARKYLKYHIGSRSFDSRHSVYYQPTPQLAAALSAPQDAQNIGNISGSSASDDDIFEQINRYGTVYSILENNSGDK
chain 2: MSKPQNNDTLELDDILSQPVKDKERFAAFMMRKLAENKPAQNDNLFGNFKLDFDLDFEVPLIKKSQAKPKSKLPEVQPLGELVSKNSAATEKVNEPPVDQAPNENVPPRRSPTLSPNNRRSMRRSGNVPGSDKLRRHAIRRRSRSCGRQLLPEFEETVNLTRSISSPVNFLPEISSTPCTEKQKEEVAKNTTRVETDKPAEKPMELSQEPEPENPLQTKVTSPARNPILAAEIEQICKERQSSFHKNVLQLDYSGRAPYSRPPTPSSPSVAGLRRTYTMEKGPAPGQLLLSPSHRYDTPSKMPVVKAKRFNQELMVPDTPERQSHDPAWQSEPQPEFVVPETQPQDLGELVQTLSRSAISPIVVINTSNSNRSVRRDAVAMKSVPTSPVTALSSPPIAPSPRRSAAASPQKSIAQLPRVEENMDAIMTDDESDEHPSTVPLNLAPSGGNTTRQRRLRSSNRARATIESQESSMRLLNLHKSVNAKKSKPRKTAIPLNKAPSAPINGEQFARELTRMSNYEILDLRKRNSLNEIYPLNGHRNHRSEKLILEEEIQRELLRRNLMDEAEGLPKQQSSDDSNEDYIPVPPKTQSLRTKSNDRSQGRGRPRSTRRDLPMTTELVNYLGLSQTLETRRKSSKDGKRCLYTKGSSDHEDNDSLSPVKLPRLSKSIQIVPPPPVSLRYSQSLQNLPCSGKFDFDNVVMAAPPDFHDSVNSDAIEIAPPPPEYVVNTRGRSTSGRKSNKNDLVLPPPGYEGGQEEEHDERPSQPRCTAKELQQSTQNGRRAMENELVPPPIEYVEEENRNNEQSRRSTKNGNLVDRNTHNAVEYCEPPEPPEYDDSDHGQASILRRSGKKLQHSKQSVQKSNKEQIIAPSYENNEDYDSDEEPIYNEEYGKEESQNKNVTRRKSDKDEMASHTLECIEGPDPNWNSSCNKQNRNHQNASKSKENDKLANRSSKSQKLSNPRQNAVGTEKSVALSNRGEECTEKSSDVMESLRVNTPTPPIDQNSDDVPSRNPSPSRTLLSDDVPSTSRAALEFLQRSQNMSKSRPPDESSADVVFKKPLAPAPRAKSKKGKSEVDKLKLAKMPVEAEELNTTGIRRSKRGQVPLQMSWCHTMDPSKFNFMSGFIEPRSKNSKTKKGNLSKAKKASATKPKPTVEKNLPDNRGPLCSSTPRISEKLPGAIPHSESLGLSTLTWEETEVQAEAEKVPKKRGRPKKAVGGVQTDTEAEPEPEPEPMISSVAPLTSDQEEPDVPDEQAPYTEAALGPVVFSTPLRDEQEEASTKLMQWLRGVGDAPPSASMSDENASVSSANELIFCQVDGIDYAFYNTKEKAMLGYMRFKPYQKRSMKQAKVHPLKLLVQFGEFNVETLAVGEEKEVHSVLRVGDMIEIDRGTRYSIQNAIDKVSVLMCIRS
B2: CAL1-V5 (in U2OS cells) [Drosophila melanogaster] / CENP-A-GFP-LacI (in U2OS cells) [Drosophila melanogaster] (parent complex)
chain 1: B1 chain 1
chain 2: MPRHSRAKRAPRPSANNSKSPNDDDTAFRSPEPEDGTDYGLEFTTSQLTLQDNNRRSSTLRRDAGRRQPAARDSSTSGEEEDQENRYPTTRSPQTRRMTVQQESKTRAAGPVAAQNQTRRRKAANPMSRAKRMDREIRRLQHHPGTLIPKLPFSRLVREFIVKYSDDEPLRVTEGALLAMQESCEMYLTQRLADSYMLTKHRNRVTLEVRDMALMAYICDRGRQF
B3: His-CAL1(1-160) [Drosophila melanogaster] / CENP-A(101-225)-H4 [Drosophila melanogaster] (parent complex)
chain 1: MANAVVDEETLEAMVYERSKAWSSKMADFASLEDGMEIDVAEFDNLFHGEDEDPDLDDVAKEAVEDNVPDEAKLEMGHINATSVTELTLILCANEDNEAKAEIEEILNQTVPVVEEHKRKWREAGLDRILDTFDEKQIEHHVGRWMRRHNSVYLEASPPK
chain 2: QQESKTRAAGPVAAQNQTRRRKAANPMSRAKRMDREIRRLQHHPGTLIPKLPFSRLVREFIVKYSDDEPLRVTEGALLAMQESCEMYLTQRLADSYMLTKHRNRVTLEVRDMALMAYICDRGRQF
chain 3: not shown

Variants of: B1
Assay: LacO/LacI tethering assay in U2OS cells (fluorescence intensity of CAL1-V5 at the tethering site); parent: 2.1e+03; read off a plot

Variant | response
chain 2 F1324R | ~300 a.u.
chain 2 L1357E, chain 2 M1407E | ~490 a.u.

Variants of: B1
Assay: LacO/LacI tethering assay in Drosophila S2 cells (fluorescence intensity of CAL1-HA at the tethering site); parent: 650; read off a plot

Variant | response
chain 2 F1324R | ~35 a.u.
chain 2 L1357E, chain 2 M1407E | ~60 a.u.

Variants of: B1
Assay: LacO/LacI tethering assay in U2OS cells (fluorescence intensity of CAL1-V5 at the tethering site); parent: 2.1e+03; read off a plot
Remark: another data set of the same source

Variant | response
chain 1 I900R, chain 1 K907A, chain 1 Y908A | ~300 a.u.

Variants of: B1
Assay: LacO/LacI tethering assay in Drosophila S2 cells (fluorescence intensity of CAL1-HA at the tethering site); parent: 650; read off a plot
Remark: another data set of the same source

Variant | response
chain 1 I900R, chain 1 K907A, chain 1 Y908A | ~12 a.u.

Variants of: B2
Assay: LacO/LacI tethering assay in U2OS cells (fluorescence intensity of CAL1-V5 at the tethering site); parent: 1.1e+03; read off a plot

Variant | response
chain 1 W22R, chain 1 F29R | ~20 a.u.
chain 1 W22A, chain 1 F29A | ~110 a.u.

Variants of: B3
Assay: Ni-NTA pull-down, band intensity quantification; parent: 4.1; read off a plot

Variant | response
chain 2 S54Q | ~3.5 ratio CENP-A101-225/H4:CAL11-160
chain 2 Q90G | ~2.8 ratio CENP-A101-225/H4:CAL11-160
chain 2 M86A | ~3.6 ratio CENP-A101-225/H4:CAL11-160
chain 2 S54Q, chain 2 M86A, chain 2 Q90G | ~0.85 ratio CENP-A101-225/H4:CAL11-160
chain 2 S54Q, chain 2 M86A | ~2.9 ratio CENP-A101-225/H4:CAL11-160

Variants of: B3
Assay: Ni-NTA pull-down, band intensity quantification; parent: 3; read off a plot

Variant | response
chain 1 W22A, chain 1 F29A | ~0.38 ratio CENP-A101-225/H4:CAL11-160
chain 1 F43R | ~1.8 ratio CENP-A101-225/H4:CAL11-160
chain 1 F29R | ~2.6 ratio CENP-A101-225/H4:CAL11-160
chain 1 F29A | ~3.2 ratio CENP-A101-225/H4:CAL11-160
chain 1 W22R, chain 1 F29R | ~0.42 ratio CENP-A101-225/H4:CAL11-160
chain 1 W22R | ~0.7 ratio CENP-A101-225/H4:CAL11-160
